Test results from patent publication US20220010021A1 (Sanofi, published 2022).
Numbering of substitutions follows the chain as printed. In names and notes the source's numbering stands.

T1: human beta-Klotho (KLB) (human, UniProt Q86Z14 53-997)
T1 construct: bought protein, used as analyte in the off-rate screening; also called human KLB; β-Klotho
T1 sequence (looked up): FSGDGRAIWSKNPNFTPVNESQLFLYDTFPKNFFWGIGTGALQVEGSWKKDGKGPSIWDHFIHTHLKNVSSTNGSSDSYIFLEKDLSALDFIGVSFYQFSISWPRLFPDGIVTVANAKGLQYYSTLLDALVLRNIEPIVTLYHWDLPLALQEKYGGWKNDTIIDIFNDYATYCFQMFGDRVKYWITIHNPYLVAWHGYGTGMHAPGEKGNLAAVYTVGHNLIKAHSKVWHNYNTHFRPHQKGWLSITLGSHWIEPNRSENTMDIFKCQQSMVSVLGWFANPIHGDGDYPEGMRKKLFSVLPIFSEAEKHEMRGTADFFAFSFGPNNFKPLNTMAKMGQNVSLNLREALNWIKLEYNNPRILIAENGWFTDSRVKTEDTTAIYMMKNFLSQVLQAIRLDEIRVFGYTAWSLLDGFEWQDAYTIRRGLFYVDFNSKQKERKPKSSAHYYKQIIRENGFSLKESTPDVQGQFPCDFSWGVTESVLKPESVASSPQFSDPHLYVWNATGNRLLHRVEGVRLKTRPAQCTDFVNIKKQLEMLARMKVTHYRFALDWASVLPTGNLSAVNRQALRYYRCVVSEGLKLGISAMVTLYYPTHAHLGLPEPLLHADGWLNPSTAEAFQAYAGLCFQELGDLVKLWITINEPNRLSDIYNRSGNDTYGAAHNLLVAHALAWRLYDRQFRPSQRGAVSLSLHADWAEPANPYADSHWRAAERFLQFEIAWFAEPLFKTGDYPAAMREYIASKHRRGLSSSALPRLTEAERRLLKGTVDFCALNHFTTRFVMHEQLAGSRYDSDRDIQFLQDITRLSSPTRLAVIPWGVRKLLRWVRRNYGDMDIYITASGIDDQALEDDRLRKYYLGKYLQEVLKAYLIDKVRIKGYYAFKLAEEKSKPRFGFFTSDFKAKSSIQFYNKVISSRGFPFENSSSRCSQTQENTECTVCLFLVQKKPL

B1: 16H7 variant with light chain substitution P54S (antibody, V domains shown)
VH: not shown
VL: SYVLTQPPSVSVAPGQTARITCGGNNIGSESVHWYQQKPGQAPVLVVYDDSDRSSGIPERFSGSNSGNTATLTISRVEAGDEADYYCQVWDGNSDHVVFGGGTKLTVLG
B2: 16H7 variant with light chain substitution D52Y (antibody, V domains shown)
VH: not shown
VL: B1 VL with D52Y, S54P
B3: 16H7 variant with light chain substitution P54H (antibody, V domains shown)
VH: not shown
VL: B1 VL with S54H
B4: 16H7 variant with light chain substitution P54W (antibody, V domains shown)
VH: not shown
VL: B1 VL with S54W
B5: 16H7 variant with light chain substitution R53Q (antibody, V domains shown)
VH: not shown
VL: B1 VL with R53Q, S54P
B6: 16H7 variant with light chain substitution P54L (antibody, V domains shown)
VH: not shown
VL: B1 VL with S54L
B7: 16H7 variant with light chain substitution P54M (antibody, V domains shown)
VH: not shown
VL: B1 VL with S54M
B8: 16H7 variant with light chain substitution P54N (antibody, V domains shown)
VH: not shown
VL: B1 VL with S54N
B9: 16H7 variant with light chain substitution D52T (antibody, V domains shown)
VH: not shown
VL: B1 VL with D52T, S54P
B10: 16H7 variant with light chain substitution R53C (antibody, V domains shown)
VH: not shown
VL: B1 VL with R53C, S54P
B11: 16H7 variant with light chain substitution P54C (antibody, V domains shown)
VH: not shown
VL: B1 VL with S54C
B12: 16H7 variant with light chain substitution D52R (antibody, V domains shown)
VH: not shown
VL: B1 VL with D52R, S54P
B13: 16H7 variant with light chain substitution D52I (antibody, V domains shown)
VH: not shown
VL: B1 VL with D52I, S54P
B14: 16H7 variant with light chain substitution D52M (antibody, V domains shown)
VH: not shown
VL: B1 VL with D52M, S54P
B15: 16H7 variant with light chain substitution R53P (antibody, V domains shown)
VH: not shown
VL: B1 VL with R53P, S54P
B16: 16H7 variant with light chain substitution P54I (antibody, V domains shown)
VH: not shown
VL: B1 VL with S54I
B17: 16H7 variant with light chain substitution P54Y (antibody, V domains shown)
VH: not shown
VL: B1 VL with S54Y
B18: 16H7 variant with light chain substitution R53H (antibody, V domains shown)
VH: not shown
VL: B1 VL with R53H, S54P
B19: 16H7 variant with light chain substitution D52H (antibody, V domains shown)
VH: not shown
VL: B1 VL with D52H, S54P
B20: 16H7 variant with light chain substitution R53M (antibody, V domains shown)
VH: not shown
VL: B1 VL with R53M, S54P

Assays:
[1] = target: T1, human beta-Klotho (KLB); assay: BLI off-rate screening, mAb captured, KLB analyte;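 further: Off-rate taken from the dissociation phase, biosensors held in D-PBS with 0.1% BSA over 1800 s, antibody supernatants diluted to 25 µg/mL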
[2] = target: human FGFR1c/KLB receptor complex on iLite FGF21 Assay Ready Cells (human, UniProt P11362 22-822; Q86Z14 1-1044); assay: cell-based or functional assay; on Mean E max (%): reference of the scale not given here
Chain of human FGFR1c/KLB receptor complex on iLite FGF21 Assay Ready Cells (P11362 22-822, chain 1 of 2): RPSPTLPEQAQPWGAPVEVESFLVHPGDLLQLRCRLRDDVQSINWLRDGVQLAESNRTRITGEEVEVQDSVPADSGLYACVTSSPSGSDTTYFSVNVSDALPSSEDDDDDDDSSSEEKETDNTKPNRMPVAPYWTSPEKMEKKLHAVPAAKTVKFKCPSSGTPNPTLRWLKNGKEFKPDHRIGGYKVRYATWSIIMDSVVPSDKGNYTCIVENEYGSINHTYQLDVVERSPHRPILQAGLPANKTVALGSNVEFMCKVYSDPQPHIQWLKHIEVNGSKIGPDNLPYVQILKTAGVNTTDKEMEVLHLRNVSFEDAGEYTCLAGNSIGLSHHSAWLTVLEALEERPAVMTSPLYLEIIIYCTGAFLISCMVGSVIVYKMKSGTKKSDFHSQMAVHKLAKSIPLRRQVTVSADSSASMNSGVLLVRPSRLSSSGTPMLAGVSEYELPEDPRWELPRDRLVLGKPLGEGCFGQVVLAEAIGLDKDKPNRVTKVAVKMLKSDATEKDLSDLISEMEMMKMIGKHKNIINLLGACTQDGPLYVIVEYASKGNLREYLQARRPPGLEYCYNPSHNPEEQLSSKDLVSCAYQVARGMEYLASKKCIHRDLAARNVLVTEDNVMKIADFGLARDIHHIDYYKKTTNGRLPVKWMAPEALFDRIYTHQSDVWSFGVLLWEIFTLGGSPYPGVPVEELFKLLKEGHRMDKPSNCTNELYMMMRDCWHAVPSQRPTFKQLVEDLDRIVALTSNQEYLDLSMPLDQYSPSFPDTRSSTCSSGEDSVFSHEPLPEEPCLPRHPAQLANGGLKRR
Chain of human FGFR1c/KLB receptor complex on iLite FGF21 Assay Ready Cells (Q86Z14 whole entry, chain 2 of 2): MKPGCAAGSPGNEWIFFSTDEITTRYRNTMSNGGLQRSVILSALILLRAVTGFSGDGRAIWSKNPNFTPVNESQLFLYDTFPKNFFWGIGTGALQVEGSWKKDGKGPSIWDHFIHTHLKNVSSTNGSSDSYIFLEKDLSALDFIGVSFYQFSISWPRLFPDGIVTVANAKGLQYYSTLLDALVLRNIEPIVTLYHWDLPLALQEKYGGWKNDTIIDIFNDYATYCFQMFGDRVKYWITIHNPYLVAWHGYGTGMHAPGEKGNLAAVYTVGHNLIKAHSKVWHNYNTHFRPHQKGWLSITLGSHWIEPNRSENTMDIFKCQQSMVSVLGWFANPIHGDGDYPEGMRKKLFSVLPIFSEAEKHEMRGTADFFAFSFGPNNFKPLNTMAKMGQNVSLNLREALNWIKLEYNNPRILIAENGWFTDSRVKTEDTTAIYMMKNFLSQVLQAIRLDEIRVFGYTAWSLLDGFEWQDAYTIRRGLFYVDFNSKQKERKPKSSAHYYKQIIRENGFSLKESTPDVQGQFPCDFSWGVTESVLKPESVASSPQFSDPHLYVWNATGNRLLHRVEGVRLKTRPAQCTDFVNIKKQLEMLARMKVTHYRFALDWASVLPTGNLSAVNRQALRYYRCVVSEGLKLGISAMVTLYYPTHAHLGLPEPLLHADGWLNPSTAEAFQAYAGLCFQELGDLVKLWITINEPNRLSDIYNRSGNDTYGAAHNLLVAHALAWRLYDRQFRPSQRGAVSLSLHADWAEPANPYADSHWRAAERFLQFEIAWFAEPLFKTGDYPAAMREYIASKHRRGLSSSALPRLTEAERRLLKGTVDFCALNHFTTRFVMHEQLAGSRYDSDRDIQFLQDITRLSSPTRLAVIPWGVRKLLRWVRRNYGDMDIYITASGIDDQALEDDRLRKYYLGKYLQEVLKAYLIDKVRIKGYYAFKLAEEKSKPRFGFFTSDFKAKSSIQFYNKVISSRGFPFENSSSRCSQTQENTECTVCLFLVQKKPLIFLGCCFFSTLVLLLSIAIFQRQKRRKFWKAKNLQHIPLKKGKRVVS

Row | Binder | koff [1] | Mean E max (%) [2] | Mean EC50 [2]
1 | B1 | 7.9e-05 s⁻¹ | 102% | 103 pM
2 | B2 | 9.1e-05 s⁻¹ | 102% | 110 pM
3 | B3 | 0.00014 s⁻¹ | 100% | 111 pM
4 | B4 | 0.00017 s⁻¹ | 98% | 91 pM
5 | B5 | 0.00024 s⁻¹ | 100% | 131 pM
6 | B6 | 9.6e-05 s⁻¹ | 108% | 133 pM
7 | B7 | 3.2e-05 s⁻¹ | 98% | 87 pM
8 | B8 | 0.00014 s⁻¹ | 105% | 150 pM
9 | B9 | 1.8e-05 s⁻¹ | 100% | 109 pM
10 | B10 | 0.00044 s⁻¹ | 107% | 147 pM
11 | B11 | 0.00012 s⁻¹ | 100% | 116 pM
12 | B12 | 2.9e-05 s⁻¹ | 96% | 91 pM
13 | B13 | 2.8e-05 s⁻¹ | 110% | 140 pM
14 | B14 | 2.4e-05 s⁻¹ | 105% | 144 pM
15 | B15 | 0.00028 s⁻¹ | 92% | 126 pM
16 | B16 | 3.5e-05 s⁻¹ | 112% | 115 pM
17 | B17 | 8.3e-05 s⁻¹ | 110% | 150 pM
18 | B18 | 0.00015 s⁻¹ | 103% | 153 pM
19 | B19 | 3.6e-05 s⁻¹ | 97% | 109 pM
20 | B20 | 0.00018 s⁻¹ | 95% | 99 pM
